Numbering of substitutions follows the chain as printed. One block for each binder: values may come before it.
Assays:
[1] = biological target: T1, human insulin-like growth factor-I (IGF-I) (human, UniProt P05019 49-118); test: cell-based or functional assay
[2] = biological target: T2, human insulin-like growth factor-II (IGF-II) (human, UniProt P01344 25-91); test: cell-based or functional assay
[3] = biological target: T1, human insulin-like growth factor-I …; test: cell-based or functional assay; remark: listed apart in the source
[4] = biological target: T2, human insulin-like growth factor-II …; test: cell-based or functional assay; remark: listed apart in the source
[5] = biological target: T1, human insulin-like growth factor-I …; test: cell-based or functional assay; remark: listed apart in the source
[6] = biological target: T2, human insulin-like growth factor-II …; test: cell-based or functional assay; remark: listed apart in the source
[7] = biological target: T2, human insulin-like growth factor-II …; test: cell-based or functional assay; remark: listed apart in the source
mouse IGF-I = mouse IGF-I (mouse, UniProt P05017 49-118); test: cell-based or functional assay
mouse IGF-II = mouse IGF-II (mouse, UniProt P09535 25-91); test: cell-based or functional assay
[8] = biological target: T1, human insulin-like growth factor-I …; test: Biacore low-resolution analysis, IGF-I
[9] = biological target: T2, human insulin-like growth factor-II …; test: Biacore low-resolution analysis, IGF-II
[10] = biological target: T1, human insulin-like growth factor-I …; test: Biacore low-resolution screen, mAb captured, IGF-I injected
[11] = biological target: T2, human insulin-like growth factor-II …; test: Biacore low-resolution screen, mAb captured, IGF-II injected
[12] = biological target: T1, human insulin-like growth factor-I …; test: Biacore high-resolution, mAb captured, IGF-I injected over a range of concentrations
[13] = biological target: T2, human insulin-like growth factor-II …; test: Biacore high-resolution, mAb captured, IGF-II injected over a range of concentrations
human insulin = biological target: T3, human insulin (human, UniProt P01308 25-54; P01308 90-110, limits assumed); test: Biacore, mAb on CM5 chip, insulin injected
T3 construct: The mature hormone has an A and a B chain cut from the precursor; also called recombinant insulin; hu-Insulin

[14] = biological target: T4, Recombinant human IGF-I (insulin-like growth factor-I) (human, UniProt P05019 49-118); test: limited antigen ELISA, supernatant 1:25
T4 construct: Bought; also called IGF1; IGF-1

[15] = biological target: T5, Recombinant human IGF-II (insulin-like growth factor-II) (human, UniProt P01344 25-91); test: limited antigen ELISA, supernatant 1:25
T5 construct: Bought; also called IGF2; IGF-2

IGF-I/IGFBP-3 complex = biological target: T6, IGF-I/IGFBP-3 complex (UniProt P05019 49-118); test: Biacore, mAb immobilised, preformed complex injected
T6 construct: Preformed non-covalent complex; IGF-I 99.97% complexed by IGFBP-3; also called complexed IGF-I/IGFBP-3

IGF-II/IGFBP-3 complex = biological target: T7, IGF-II/IGFBP-3 complex (UniProt P01344 25-91); test: as above
T7 construct: Preformed non-covalent complex; IGF-II 99.97% complexed by IGFBP-3; also called complexed IGF-II/IGFBP-3

- % MAX Activation, mean (n = 2), IGF-I pTYR of hIGF-IR in NIH3T3 cells [1]: 16.9%
- EC50 (nM), mean (n = 2), IGF-I pTYR of hIGF-IR in NIH3T3 cells [1]: 14.5 nM
- % MAX Activation, mean (n = 2), IGF-II pTYR of hIGF-IR in NIH3T3 cells [2]: 15.9%
- EC50 (nM), mean (n = 2), IGF-II pTYR of hIGF-IR in NIH3T3 cells [2]: 3 nM
- % Inhibition, mean (n = 3), IGF-I Proliferation Assay, NIH3T3/hIGF-IR cells [3]: 72.4%
- EC50 (nM), mean (n = 3), IGF-I Proliferation Assay, NIH3T3/hIGF-IR cells [3]: 38.9 nM
- % Inhibition, mean (n = 2), IGF-II Proliferation Assay, NIH3T3/hIGF-IR cells [4]: 79.2%
- EC50 (nM), mean (n = 2), IGF-II Proliferation Assay, NIH3T3/hIGF-IR cells [4]: 22 nM
- EC50 (nM), n = 1, IGF-I pTYR, BxPC3 cells [5]: 7.5 nM
- EC50 (nM), n = 2, IGF-I pTYR, BxPC3 cells [5]: 5.3 nM
- Max % Inhibition (333.3 nM), n = 1, IGF-I pTYR, BxPC3 cells [5]: 95.7%
- Max % Inhibition (333.3 nM), n = 2, IGF-I pTYR, BxPC3 cells [5]: 95.2%
- EC50 (nM), n = 2, IGF-II pTYR, BxPC3 cells [6]: 2.6 nM
- Max % Inhibition (133.3 nM), n = 2, IGF-II pTYR, BxPC3 cells [6]: 91.3%
- Max % Inhibition (333.3 nM), n = 1, IGF-II pTYR, BxPC3 cells [6]: 100%
- EC50 (nM), n = 1, IGF-II Proliferation, BxPC3 cells [7]: 0.5 nM
- EC50 (nM), n = 2, IGF-II Proliferation, BxPC3 cells [7]: 4.4 nM
- Max % Inhibition (133.3 nM), n = 2, IGF-II Proliferation, BxPC3 cells [7]: 105%
- Max % Inhibition (333.3 nM), n = 1, IGF-II Proliferation, BxPC3 cells [7]: 128%
- Mouse IGF-I EC50 (nM), n = 1, phosphorylation of hIGF-IR in NIH3T3 cells (mouse IGF-I): 6.7 nM
- Mouse IGF-I EC50 (nM), n = 2, phosphorylation of hIGF-IR in NIH3T3 cells (mouse IGF-I): 10.6 nM
- Mouse IGF-II EC50 (nM), n = 1, phosphorylation of hIGF-IR in NIH3T3 cells (mouse IGF-II): 5.4 nM
- Mouse IGF-II EC50 (nM), n = 2, phosphorylation of hIGF-IR in NIH3T3 cells (mouse IGF-II): 8.7 nM
- Kd [8]: 0.935 nM
- Kd [9]: 0.123 nM
- Kd [10]: 0.935 nM
- koff [10]: 0.0043 s⁻¹
- kon [10]: 4.6e+06 M⁻¹ s⁻¹
- Kd [11]: 0.123 nM
- koff [11]: 0.00043 s⁻¹
- kon [11]: 3.5e+06 M⁻¹ s⁻¹
- Kd [12]: 0.452 nM
- Kd [13]: 0.0474 nM
B1: mAb 7.251.3 (antibody, V domains shown)
VH: QVQLQESGPGLVKPSETLSLTCTVSGGSISSYYWSWIRQPPGKGLEWIGYFFYSGYTNYNPSLKSRVTISVDTSKNQFSLKLSSVTAADTAVYYCACITGTTKGGMDVWGQGTTVTVSS
VL: QSVLTQPPSVSGAPGQRVTISCTGSSSNIGAGYDVHWYQQLPGTAPKLLIYGNNNRPSGVPDRFSGSKSGTSASLAITGLQADDEADYYCQSFDSSLSGSVFGGGTKLTVLG
notes: Fully human XenoMouse hybridoma mAb, lambda light chain (V1-13/JL2); also called ATCC PTA-7422

- binding result (human insulin): no binding (tested: 502 nM)
- LA OD, IGF1 2 ng/ml [14]: 0.21 OD 450 nm
- LA OD, IGF1 4 ng/ml [14]: 0.44 OD 450 nm
- LA OD, IGF2 2 ng/ml [15]: 1.07 OD 450 nm
- LA OD, IGF2 4 ng/ml [15]: 1.84 OD 450 nm
- Kd (IGF-I/IGFBP-3 complex): > 1000 nM
- Kd (IGF-II/IGFBP-3 complex): > 1000 nM
B2: mAb 7.34.1 (ATCC Accession Number PTA-7423) (antibody, V domains shown)
VH: B1 VH with K43R, I69M, T113A
VL: B1 VL with P7A, S25R, L41F, N54S, D83E, F93Y
notes: Fully human, lambda light chain (V1-13/JL2)

- binding result (human insulin): no binding (tested: 502 nM)
- LA OD, IGF1 2 ng/ml [14]: 1.09 OD 450 nm
- LA OD, IGF1 4 ng/ml [14]: 1.31 OD 450 nm
- LA OD, IGF2 2 ng/ml [15]: 1.02 OD 450 nm
- LA OD, IGF2 4 ng/ml [15]: 1.53 OD 450 nm
- Kd (IGF-I/IGFBP-3 complex): > 1000 nM
- Kd (IGF-II/IGFBP-3 complex): > 1000 nM
B3: mAb 7.251.3 (ATCC Accession Number PTA-7422) (antibody, V domains shown)
VH: B1 VH
VL: B1 VL
notes: as for B2

- binding result (human insulin): no binding (tested: 502 nM)
- LA OD, IGF1 2 ng/ml [14]: 0.56 OD 450 nm
- LA OD, IGF1 4 ng/ml [14]: 0.98 OD 450 nm
- LA OD, IGF2 2 ng/ml [15]: 1.65 OD 450 nm
- LA OD, IGF2 4 ng/ml [15]: 2.47 OD 450 nm
- Kd (IGF-I/IGFBP-3 complex): > 1000 nM
- Kd (IGF-II/IGFBP-3 complex): > 1000 nM
B4: mAb 7.159.2 (ATCC Accession Number PTA-7424) (antibody, V domains shown)
VH: QVQLVQSGAEVKKPGASVKVSCKASGYTFTSYDINWVRQATGQGLEWMGWMNPNSGNTGYAQKFQGRVTMTRNTSISTAYMELSSLRSEDTAVYYCARDPYYYYYGMDVWGQGTTVTVSS
VL: QSVLTQPPSVSAAPGQKVTISCSGSSSNIENNHVSWYQQLPGTAPKLLIYDNNKRPSGIPDRFSGSKSGTSATLGITGLQTGDEADYYCETWDTSLSAGRVFGGGTKLTVLG
notes: Fully human, lambda light chain (V1-19/JL2); also called 7.159.1; 7_159_1

Reference: US20070196376A1 (AstraZeneca / MedImmune, published 2007)
